From patent US20180155451A1 (published 2018)

T1: FcγRIIa H (human, UniProt P12318 34-217)
T1 construct: extracellular domain; also called FcgRIIa H type; 2aH
T1 sequence (looked up): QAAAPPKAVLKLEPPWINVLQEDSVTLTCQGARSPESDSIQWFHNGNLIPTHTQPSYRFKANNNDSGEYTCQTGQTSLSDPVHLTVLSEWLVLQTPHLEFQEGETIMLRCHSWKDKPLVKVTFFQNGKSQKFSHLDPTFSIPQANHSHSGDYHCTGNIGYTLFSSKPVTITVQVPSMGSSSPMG

T2: FcγRIIb (human, UniProt P31994 43-217)
T2 construct: extracellular domain; also called FcgRIIb; 2b
T2 sequence (looked up): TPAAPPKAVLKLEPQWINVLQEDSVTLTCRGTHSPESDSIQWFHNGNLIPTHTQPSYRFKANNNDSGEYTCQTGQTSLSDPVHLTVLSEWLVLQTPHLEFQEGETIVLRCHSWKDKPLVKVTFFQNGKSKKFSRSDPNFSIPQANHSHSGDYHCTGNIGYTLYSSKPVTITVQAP

T3: FcγRIIb extracellular domain with C-terminal His tag (human, UniProt P31994 43-217)
T3 construct: extracellular domain; also called FcgRIIb; 2b; not shown: His tag at the C terminus
T3 sequence (looked up): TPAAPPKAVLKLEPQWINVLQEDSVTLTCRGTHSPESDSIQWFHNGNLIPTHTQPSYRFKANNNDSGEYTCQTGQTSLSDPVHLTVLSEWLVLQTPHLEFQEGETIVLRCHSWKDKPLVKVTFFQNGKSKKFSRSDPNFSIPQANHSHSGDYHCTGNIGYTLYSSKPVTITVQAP

B1: GpH7-A5/GpH7-B3 variant H268_08L/GpL16-k0 (antibody, human IgG1, kappa)
heavy 1: not shown
heavy 2: not shown
light: DIVMTQSPLSLPVTPGEPASISCQASESLVHSNRNTYLHWYLQKPGQSPQLLIYKVSNRFSGVPDRFSGSGSGTDFTLKISRVEAEDVGVYYCSQNTHVPPTFGQGTKVEIERTVAAPSVFIFPPSDEQLKSGTASVVCLLNNFYPREAKVQWKVDNALQSGNSQESVTEQDSKDSTYSLSSTLTLSKADYEKHKVYACEVTHQGLSSPVTKSFNRGEC
notes: Heterodimerized anti-glypican-3 IgG1; substitution in only one H chain (the GpH7-B3 chain); also called He Ab
B2: GpH7-A5/GpH7-B3 variant D270_01G/GpL16-k0 (antibody, human IgG1, kappa)
heavy 1: not shown
heavy 2: not shown
light: DIVMTQSPLSLPVTPGEPASISCQASESLVHSNRNTYLHWYLQKPGQSPQLLIYKVSNRFSGVPDRFSGSGSGTDFTLKISRVEAEDVGVYYCSQNTHVPPTFGQGTKVEIERTVAAPSVFIFPPSDEQLKSGTASVVCLLNNFYPREAKVQWKVDNALQSGNSQESVTEQDSKDSTYSLSSTLTLSKADYEKHKVYACEVTHQGLSSPVTKSFNRGEC
notes: He Ab: the mutation stands only in the GpH7-B3-derived H chain; also called He Ab D270G
B3: GpH7-A5/GpH7-B3 variant D270_06M/GpL16-k0 (antibody, human IgG1, kappa)
heavy 1: not shown
heavy 2: not shown
light: DIVMTQSPLSLPVTPGEPASISCQASESLVHSNRNTYLHWYLQKPGQSPQLLIYKVSNRFSGVPDRFSGSGSGTDFTLKISRVEAEDVGVYYCSQNTHVPPTFGQGTKVEIERTVAAPSVFIFPPSDEQLKSGTASVVCLLNNFYPREAKVQWKVDNALQSGNSQESVTEQDSKDSTYSLSSTLTLSKADYEKHKVYACEVTHQGLSSPVTKSFNRGEC
notes: He Ab: the mutation stands only in the GpH7-B3-derived H chain; also called He Ab D270M
B4: GpH7-A5/GpH7-B3 variant D270_13S/GpL16-k0 (antibody, human IgG1, kappa)
heavy 1: not shown
heavy 2: not shown
light: DIVMTQSPLSLPVTPGEPASISCQASESLVHSNRNTYLHWYLQKPGQSPQLLIYKVSNRFSGVPDRFSGSGSGTDFTLKISRVEAEDVGVYYCSQNTHVPPTFGQGTKVEIERTVAAPSVFIFPPSDEQLKSGTASVVCLLNNFYPREAKVQWKVDNALQSGNSQESVTEQDSKDSTYSLSSTLTLSKADYEKHKVYACEVTHQGLSSPVTKSFNRGEC
notes: He Ab: the mutation stands only in the GpH7-B3-derived H chain; also called He Ab D270S
B5: GpH7-A5/GpH7-B3 variant D270_19Q/GpL16-k0 (antibody, human IgG1, kappa)
heavy 1: not shown
heavy 2: not shown
light: DIVMTQSPLSLPVTPGEPASISCQASESLVHSNRNTYLHWYLQKPGQSPQLLIYKVSNRFSGVPDRFSGSGSGTDFTLKISRVEAEDVGVYYCSQNTHVPPTFGQGTKVEIERTVAAPSVFIFPPSDEQLKSGTASVVCLLNNFYPREAKVQWKVDNALQSGNSQESVTEQDSKDSTYSLSSTLTLSKADYEKHKVYACEVTHQGLSSPVTKSFNRGEC
notes: He Ab: the mutation stands only in the GpH7-B3-derived H chain; also called He Ab D270Q
B6: GpH7-A5/GpH7-B3 variant D270_10E/GpL16-k0 (antibody, human IgG1, kappa)
heavy 1: not shown
heavy 2: not shown
light: DIVMTQSPLSLPVTPGEPASISCQASESLVHSNRNTYLHWYLQKPGQSPQLLIYKVSNRFSGVPDRFSGSGSGTDFTLKISRVEAEDVGVYYCSQNTHVPPTFGQGTKVEIERTVAAPSVFIFPPSDEQLKSGTASVVCLLNNFYPREAKVQWKVDNALQSGNSQESVTEQDSKDSTYSLSSTLTLSKADYEKHKVYACEVTHQGLSSPVTKSFNRGEC
notes: He Ab: the mutation stands only in the GpH7-B3-derived H chain; also called He Ab D270E
B7: GpH7-A5/GpH7-B3 variant D270_11K/GpL16-k0 (antibody, human IgG1, kappa)
heavy 1: not shown
heavy 2: not shown
light: DIVMTQSPLSLPVTPGEPASISCQASESLVHSNRNTYLHWYLQKPGQSPQLLIYKVSNRFSGVPDRFSGSGSGTDFTLKISRVEAEDVGVYYCSQNTHVPPTFGQGTKVEIERTVAAPSVFIFPPSDEQLKSGTASVVCLLNNFYPREAKVQWKVDNALQSGNSQESVTEQDSKDSTYSLSSTLTLSKADYEKHKVYACEVTHQGLSSPVTKSFNRGEC
notes: He Ab: the mutation stands only in the GpH7-B3-derived H chain; also called He Ab D270K

Legend:
[1] = target: T1, FcγRIIa H; test: SPR (Biacore), antibody captured on antigen-peptide chip, FcγR as analyte; binding relative to GpH7-A5/GpH7-B3/GpL16-k0 = 100
[2] = target: T2, FcγRIIb; test: as above
[3] = target: T1, FcγRIIa H; test: ratio of He/Con_2aH to He/Con_2b (relative SPR binding to FcγRIIa H over that of the same antibody to FcγRIIb)
[4] = target: T4, FcγRIIIa extracellular domain with C-terminal His tag (human, UniProt P08637 17-208); test: ratio of He/Con_3a to He/Con_2b (FcγRIIIa over FcγRIIb), SPR relative binding
T4 construct: extracellular domain; also called FcgRIIIa; 3a; not shown: His tag at the C terminus
Protocol: The heterodimerized antibodies He Abs in which one of the H chains was introduced with an alteration were assayed for their binding activities to each activating FcγR and inhibitory FcγR according to the method described in Example 4. […] The activating FcγRs in FIGS. 26, 27, 28, and 29 are FcγRIa, FcγRIIa (R), FcγRIIa (H), and FcγRIIIa, respectively.
Analysis of interaction between objective antibody and the FcγR was carried out using Biacore T100 (GE Healthcare). HBS-EP+ (GE Healthcare) was used as the running buffer, and the measurement temperature was set to 25° C. Chips produced by immobilizing the antigen peptide by the amine coupling method to a Series S Sencor Chip CM5 (GE Healthcare), or alternatively, chips produced by allowing preliminarily biotinylated antigen peptides to interact with and immobilize onto a Series S Sensor Chip SA (certified) (GE Healthcare) were used. Antibodies of interest were captured onto an antigen peptide-immobilized chip, and allowed to interact to each FcγR diluted with running buffer. To regenerate and repeatedly use the chip, the antibodies captured on the chip were washed off by reacting 10 mM glycine-HCl, pH 1.5.

[5] = target: T3, FcγRIIb extracellular domain with …; test: SPR (Biacore), antibody captured via antigen peptide, FcγR as analyte; binding relative to GpH7-A5/GpH7-B3/GpL16-k0 = 100
[6] = target: T4, FcγRIIIa extracellular domain with …; test: as above

T4 sequence (P08637 17-208): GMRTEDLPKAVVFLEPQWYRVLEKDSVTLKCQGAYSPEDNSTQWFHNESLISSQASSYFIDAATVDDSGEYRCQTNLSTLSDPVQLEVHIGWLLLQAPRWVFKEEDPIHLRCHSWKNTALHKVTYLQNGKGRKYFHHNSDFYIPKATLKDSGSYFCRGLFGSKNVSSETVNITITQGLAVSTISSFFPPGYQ

Binder	He/Con_2aH [1]	He/Con_2b [2]	He_2aH/2b (IIaH/IIb) [3]	IIIa/IIb (He_3a/2b) [4]	He/Con_2b [5]	He/Con_3a [6]
B1	85 % of HeCon Ab	67.8 % of HeCon Ab	1.25	–	–	–
B2	–	–	–	1.26	30.5 relative (control = 100)	38.5 relative (control = 100)
B3	–	–	–	1.38	48.2 relative (control = 100)	66.3 relative (control = 100)
B4	–	–	–	1.28	44.2 relative (control = 100)	56.7 relative (control = 100)
B5	–	–	–	1.7	48 relative (control = 100)	81.9 relative (control = 100)
B6	–	–	–	1.61	76.5 relative (control = 100)	123 relative (control = 100)
B7	–	–	–	2.02	20.3 relative (control = 100)	41 relative (control = 100)
